Test results published in paper PMC11362013, “Mechanism for controlled assembly of transcriptional condensates by Aire” (Nature Immunology, 2024).
One block for each molecule: values may come before it.

Assays:
[1] = target: FAM-labeled H3 peptide (aa 1-21) with K4me1 (UniProt P68431); experiment: fluorescence polarisation; 50 nM fluorescein-labeled H3 peptide, increasing PHD (0-900 μM) in SEC Buffer (25 mM HEPES pH 7.5, 100 mM NaCl, 5 mM BME), 25 °C; simple binding isotherm
[2] = target: FAM-labeled H3 peptide (aa 1-21) with no modification (UniProt P68431); experiment: as above
CBP TAZ2 [3] = target: T1, CBP TAZ2 (mouse, UniProt P45481 1764-1855); experiment: ITC; 760 μM mouse Aire CTT in the syringe, 19-76 μM TAZ2 in the cell; 20 °C; 20 mM HEPES pH 7.5, 100 mM NaCl, 1 mM dithiothreitol; two-site binding model; details: both partners purified
T1 construct: the recombinant construct itself is described in the Supplementary Note; also called isolated CBP TAZ2; recombinant CBP TAZ2; source: E. coli, purified (details in the Supplementary Note)
T1 sequence (looked up): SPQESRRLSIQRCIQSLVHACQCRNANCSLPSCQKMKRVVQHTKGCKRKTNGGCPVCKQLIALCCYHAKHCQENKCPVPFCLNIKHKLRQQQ

CBP TAZ2 [4] = target: T2, CBP TAZ2 (mouse, UniProt P45481 1764-1855); experiment: ITC; two-site model, second site
T2 chain: T1 sequence (looked up)

Kd [1]: 23.2 µM
Kd [2]: 5.25 µM
Molecule: mouse Aire PHD1 (domain or fragment)

Kd [2]: 45.3 µM
Molecule: CHD4 PHD2 (domain or fragment)

Kd of the high-affinity site (two-site model) (CBP TAZ2 [3]): 0.26 µM
Kd of the second, low-affinity site (two-site model) (CBP TAZ2 [3]): 40 µM
Kd (CBP TAZ2 [4]): 39.7 µM
B1: mouse Aire CTT (aa 480-552) (domain or fragment, UniProt Q9Z0E3 480-552, looked up)
chain: TPTPGTPGEAVPTSGPRPAPGLAKVGDDSASHDPVLHRDDLESLLNEHSFDGILQWAIQSMSRPLAETPPFSS
notes: Aire (autoimmune regulator), mouse, C-terminal tail (CTT), residues 480-552; Used in NMR (15N13C-labelled) and ITC; whether tags were left on it is told only in the Supplementary Note; also called isolated CTT; source: E. coli, purified (details in the Supplementary Note)
